From patent US12679878B2, “CRF2 receptor agonists and their use in therapy” (SANOFI, priority 2020, dated 2026)
Starred links: 1 amine or outer side, 2 acyl side, 3 side chain; linkers in the order of their positions; H or OH if unused. Non-standard residues stand in square brackets, D forms with d. Groups on a side chain read outwards from the residue. No end group written: not given here. *: point of attachment. C18 diacid = O=C(O)CCCCCCCCCCCCCCCCC(=O)*; γGlu = O=C(O)[C@H](CCC(=O)[*:2])N[*:1]; Palmitoyl = CCCCCCCCCCCCCCCC(=O)*; AEEA = NCCOCCOCC(=O)O; Aib = CC(C)(N)C(=O)O

B1: SEQ ID NO: 139 (peptide)
peptide: IVLSLD[dV]PIKLK([AEEA-AEEA-γGlu-C18 diacid])QILLKQERQKKQRQQAEKNKQILAQV-NH2
modifications: N-terminus assumed
SMILES: CC[C@H](C)[C@H](N)C(=O)N[C@H](C(=O)N[C@@H](CC(C)C)C(=O)N[C@@H](CO)C(=O)N[C@@H](CC(C)C)C(=O)N[C@@H](CC(=O)O)C(=O)N[C@@H](C(=O)N1CCC[C@H]1C(=O)N[C@H](C(=O)N[C@@H](CCCCN)C(=O)N[C@@H](CC(C)C)C(=O)N[C@@H](CCCCNC(=O)COCCOCCNC(=O)COCCOCCNC(=O)CC[C@H](NC(=O)CCCCCCCCCCCCCCCCC(=O)O)C(=O)O)C(=O)N[C@@H](CCC(N)=O)C(=O)N[C@H](C(=O)N[C@@H](CC(C)C)C(=O)N[C@@H](CC(C)C)C(=O)N[C@@H](CCCCN)C(=O)N[C@@H](CCC(N)=O)C(=O)N[C@@H](CCC(=O)O)C(=O)N[C@@H](CCCNC(=N)N)C(=O)N[C@@H](CCC(N)=O)C(=O)N[C@@H](CCCCN)C(=O)N[C@@H](CCCCN)C(=O)N[C@@H](CCC(N)=O)C(=O)N[C@@H](CCCNC(=N)N)C(=O)N[C@@H](CCC(N)=O)C(=O)N[C@@H](CCC(N)=O)C(=O)N[C@@H](C)C(=O)N[C@@H](CCC(=O)O)C(=O)N[C@@H](CCCCN)C(=O)N[C@@H](CC(N)=O)C(=O)N[C@@H](CCCCN)C(=O)N[C@@H](CCC(N)=O)C(=O)N[C@H](C(=O)N[C@@H](CC(C)C)C(=O)N[C@@H](C)C(=O)N[C@@H](CCC(N)=O)C(=O)N[C@H](C(N)=O)C(C)C)[C@@H](C)CC)[C@@H](C)CC)[C@@H](C)CC)C(C)C)C(C)C
B2: SEQ ID NO: 14 (peptide)
peptide: FTLSLDVPTKIK([γGlu-Palmitoyl])QKLLKQEKQRKQKQKAKTNAKILARV-NH2
modifications: N-terminus assumed
SMILES: CCCCCCCCCCCCCCCC(=O)N[C@@H](CCC(=O)NCCCC[C@H](NC(=O)[C@@H](NC(=O)[C@H](CCCCN)NC(=O)[C@@H](NC(=O)[C@@H]1CCCN1C(=O)[C@@H](NC(=O)[C@H](CC(=O)O)NC(=O)[C@H](CC(C)C)NC(=O)[C@H](CO)NC(=O)[C@H](CC(C)C)NC(=O)[C@@H](NC(=O)[C@@H](N)Cc1ccccc1)[C@@H](C)O)C(C)C)[C@@H](C)O)[C@@H](C)CC)C(=O)N[C@@H](CCC(N)=O)C(=O)N[C@@H](CCCCN)C(=O)N[C@@H](CC(C)C)C(=O)N[C@@H](CC(C)C)C(=O)N[C@@H](CCCCN)C(=O)N[C@@H](CCC(N)=O)C(=O)N[C@@H](CCC(=O)O)C(=O)N[C@@H](CCCCN)C(=O)N[C@@H](CCC(N)=O)C(=O)N[C@@H](CCCNC(=N)N)C(=O)N[C@@H](CCCCN)C(=O)N[C@@H](CCC(N)=O)C(=O)N[C@@H](CCCCN)C(=O)N[C@@H](CCC(N)=O)C(=O)N[C@@H](CCCCN)C(=O)N[C@@H](C)C(=O)N[C@@H](CCCCN)C(=O)N[C@H](C(=O)N[C@@H](CC(N)=O)C(=O)N[C@@H](C)C(=O)N[C@@H](CCCCN)C(=O)N[C@H](C(=O)N[C@@H](CC(C)C)C(=O)N[C@@H](C)C(=O)N[C@@H](CCCNC(=N)N)C(=O)N[C@H](C(N)=O)C(C)C)[C@@H](C)CC)[C@@H](C)O)C(=O)O
B3: SEQ ID NO: 137 (peptide)
peptide: IVLSLD[dV]PIKLK([AEEA-AEEA-γGlu-C18 diacid])QILLKQERQKKQREQAEKNKQILEQV-NH2
modifications: N-terminus assumed
SMILES: CC[C@H](C)[C@H](N)C(=O)N[C@H](C(=O)N[C@@H](CC(C)C)C(=O)N[C@@H](CO)C(=O)N[C@@H](CC(C)C)C(=O)N[C@@H](CC(=O)O)C(=O)N[C@@H](C(=O)N1CCC[C@H]1C(=O)N[C@H](C(=O)N[C@@H](CCCCN)C(=O)N[C@@H](CC(C)C)C(=O)N[C@@H](CCCCNC(=O)COCCOCCNC(=O)COCCOCCNC(=O)CC[C@H](NC(=O)CCCCCCCCCCCCCCCCC(=O)O)C(=O)O)C(=O)N[C@@H](CCC(N)=O)C(=O)N[C@H](C(=O)N[C@@H](CC(C)C)C(=O)N[C@@H](CC(C)C)C(=O)N[C@@H](CCCCN)C(=O)N[C@@H](CCC(N)=O)C(=O)N[C@@H](CCC(=O)O)C(=O)N[C@@H](CCCNC(=N)N)C(=O)N[C@@H](CCC(N)=O)C(=O)N[C@@H](CCCCN)C(=O)N[C@@H](CCCCN)C(=O)N[C@@H](CCC(N)=O)C(=O)N[C@@H](CCCNC(=N)N)C(=O)N[C@@H](CCC(=O)O)C(=O)N[C@@H](CCC(N)=O)C(=O)N[C@@H](C)C(=O)N[C@@H](CCC(=O)O)C(=O)N[C@@H](CCCCN)C(=O)N[C@@H](CC(N)=O)C(=O)N[C@@H](CCCCN)C(=O)N[C@@H](CCC(N)=O)C(=O)N[C@H](C(=O)N[C@@H](CC(C)C)C(=O)N[C@@H](CCC(=O)O)C(=O)N[C@@H](CCC(N)=O)C(=O)N[C@H](C(N)=O)C(C)C)[C@@H](C)CC)[C@@H](C)CC)[C@@H](C)CC)C(C)C)C(C)C
B4: SEQ ID NO: 140 (peptide)
peptide: IVLSLD[dV]PIKLK([AEEA-AEEA-γGlu-C18 diacid])QILLEQARQK[Aib]QRAQAEKNKRILERV-NH2
modifications: N-terminus assumed
SMILES: CC[C@H](C)[C@H](N)C(=O)N[C@H](C(=O)N[C@@H](CC(C)C)C(=O)N[C@@H](CO)C(=O)N[C@@H](CC(C)C)C(=O)N[C@@H](CC(=O)O)C(=O)N[C@@H](C(=O)N1CCC[C@H]1C(=O)N[C@H](C(=O)N[C@@H](CCCCN)C(=O)N[C@@H](CC(C)C)C(=O)N[C@@H](CCCCNC(=O)COCCOCCNC(=O)COCCOCCNC(=O)CC[C@H](NC(=O)CCCCCCCCCCCCCCCCC(=O)O)C(=O)O)C(=O)N[C@@H](CCC(N)=O)C(=O)N[C@H](C(=O)N[C@@H](CC(C)C)C(=O)N[C@@H](CC(C)C)C(=O)N[C@@H](CCC(=O)O)C(=O)N[C@@H](CCC(N)=O)C(=O)N[C@@H](C)C(=O)N[C@@H](CCCNC(=N)N)C(=O)N[C@@H](CCC(N)=O)C(=O)N[C@@H](CCCCN)C(=O)NC(C)(C)C(=O)N[C@@H](CCC(N)=O)C(=O)N[C@@H](CCCNC(=N)N)C(=O)N[C@@H](C)C(=O)N[C@@H](CCC(N)=O)C(=O)N[C@@H](C)C(=O)N[C@@H](CCC(=O)O)C(=O)N[C@@H](CCCCN)C(=O)N[C@@H](CC(N)=O)C(=O)N[C@@H](CCCCN)C(=O)N[C@@H](CCCNC(=N)N)C(=O)N[C@H](C(=O)N[C@@H](CC(C)C)C(=O)N[C@@H](CCC(=O)O)C(=O)N[C@@H](CCCNC(=N)N)C(=O)N[C@H](C(N)=O)C(C)C)[C@@H](C)CC)[C@@H](C)CC)[C@@H](C)CC)C(C)C)C(C)C
B5: SEQ ID NO: 138 (peptide)
peptide: IVLSLD[dV]PIKLK([AEEA-AEEA-γGlu-C18 diacid])QILLKQERQKKQREKAEKNKQILAQV-NH2
modifications: N-terminus assumed
SMILES: CC[C@H](C)[C@H](N)C(=O)N[C@H](C(=O)N[C@@H](CC(C)C)C(=O)N[C@@H](CO)C(=O)N[C@@H](CC(C)C)C(=O)N[C@@H](CC(=O)O)C(=O)N[C@@H](C(=O)N1CCC[C@H]1C(=O)N[C@H](C(=O)N[C@@H](CCCCN)C(=O)N[C@@H](CC(C)C)C(=O)N[C@@H](CCCCNC(=O)COCCOCCNC(=O)COCCOCCNC(=O)CC[C@H](NC(=O)CCCCCCCCCCCCCCCCC(=O)O)C(=O)O)C(=O)N[C@@H](CCC(N)=O)C(=O)N[C@H](C(=O)N[C@@H](CC(C)C)C(=O)N[C@@H](CC(C)C)C(=O)N[C@@H](CCCCN)C(=O)N[C@@H](CCC(N)=O)C(=O)N[C@@H](CCC(=O)O)C(=O)N[C@@H](CCCNC(=N)N)C(=O)N[C@@H](CCC(N)=O)C(=O)N[C@@H](CCCCN)C(=O)N[C@@H](CCCCN)C(=O)N[C@@H](CCC(N)=O)C(=O)N[C@@H](CCCNC(=N)N)C(=O)N[C@@H](CCC(=O)O)C(=O)N[C@@H](CCCCN)C(=O)N[C@@H](C)C(=O)N[C@@H](CCC(=O)O)C(=O)N[C@@H](CCCCN)C(=O)N[C@@H](CC(N)=O)C(=O)N[C@@H](CCCCN)C(=O)N[C@@H](CCC(N)=O)C(=O)N[C@H](C(=O)N[C@@H](CC(C)C)C(=O)N[C@@H](C)C(=O)N[C@@H](CCC(N)=O)C(=O)N[C@H](C(N)=O)C(C)C)[C@@H](C)CC)[C@@H](C)CC)[C@@H](C)CC)C(C)C)C(C)C
B6: SEQ ID NO: 141 (peptide)
peptide: IVLSLD[dV]PIKLK([AEEA-AEEA-γGlu-C18 diacid])QILLKQARQK[Aib]QRAQAEKNKRILERV-NH2
modifications: N-terminus assumed
SMILES: CC[C@H](C)[C@H](N)C(=O)N[C@H](C(=O)N[C@@H](CC(C)C)C(=O)N[C@@H](CO)C(=O)N[C@@H](CC(C)C)C(=O)N[C@@H](CC(=O)O)C(=O)N[C@@H](C(=O)N1CCC[C@H]1C(=O)N[C@H](C(=O)N[C@@H](CCCCN)C(=O)N[C@@H](CC(C)C)C(=O)N[C@@H](CCCCNC(=O)COCCOCCNC(=O)COCCOCCNC(=O)CC[C@H](NC(=O)CCCCCCCCCCCCCCCCC(=O)O)C(=O)O)C(=O)N[C@@H](CCC(N)=O)C(=O)N[C@H](C(=O)N[C@@H](CC(C)C)C(=O)N[C@@H](CC(C)C)C(=O)N[C@@H](CCCCN)C(=O)N[C@@H](CCC(N)=O)C(=O)N[C@@H](C)C(=O)N[C@@H](CCCNC(=N)N)C(=O)N[C@@H](CCC(N)=O)C(=O)N[C@@H](CCCCN)C(=O)NC(C)(C)C(=O)N[C@@H](CCC(N)=O)C(=O)N[C@@H](CCCNC(=N)N)C(=O)N[C@@H](C)C(=O)N[C@@H](CCC(N)=O)C(=O)N[C@@H](C)C(=O)N[C@@H](CCC(=O)O)C(=O)N[C@@H](CCCCN)C(=O)N[C@@H](CC(N)=O)C(=O)N[C@@H](CCCCN)C(=O)N[C@@H](CCCNC(=N)N)C(=O)N[C@H](C(=O)N[C@@H](CC(C)C)C(=O)N[C@@H](CCC(=O)O)C(=O)N[C@@H](CCCNC(=N)N)C(=O)N[C@H](C(N)=O)C(C)C)[C@@H](C)CC)[C@@H](C)CC)[C@@H](C)CC)C(C)C)C(C)C

target: human corticotropin-releasing factor 2α (CRF2 α receptor) (human), Q13324; assay: cell-based or functional assay
Sequence (Q13324 20-411): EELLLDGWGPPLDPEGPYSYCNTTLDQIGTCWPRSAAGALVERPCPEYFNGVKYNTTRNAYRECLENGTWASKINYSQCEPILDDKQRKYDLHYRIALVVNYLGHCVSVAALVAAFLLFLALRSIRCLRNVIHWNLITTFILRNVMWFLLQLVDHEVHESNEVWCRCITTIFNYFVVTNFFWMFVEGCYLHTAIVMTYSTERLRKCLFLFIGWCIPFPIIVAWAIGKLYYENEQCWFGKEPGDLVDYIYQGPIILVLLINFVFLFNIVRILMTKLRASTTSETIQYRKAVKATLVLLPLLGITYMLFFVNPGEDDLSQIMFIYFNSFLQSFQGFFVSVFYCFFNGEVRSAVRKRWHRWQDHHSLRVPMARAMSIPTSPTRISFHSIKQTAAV

EC50 [nM], 0% HSA [nM]	EC50 [nM], 0.1% HSA [nM]	Binder
0.03	1.31	B1
0.18		B2
0.04	1.78	B3
0.04	1.27	B4
0.06	3.12	B5
0.03	0.97	B6
